Data reported in paper PMC10397247.

How the values were obtained:
4H662-AA = target: T1, 4H662-AA; experiment: two-hybrid library CCmax; conditions: mean of both orientations;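 also: natural log of median RNA to DNA barcode read ratio; higher means stronger binding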
T1 chain: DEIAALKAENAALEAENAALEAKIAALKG

4H3605-AA = target: T2, 4H3605-AA; experiment: two-hybrid library CCmax; conditions: mean of both orientations;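 also: natural log of median RNA to DNA barcode read ratio; higher means stronger binding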
T2 chain: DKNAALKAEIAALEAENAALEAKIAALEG

4H369-AA = target: T3, 4H369-AA; experiment: two-hybrid library CCmax; conditions: mean of both orientations;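 also: natural log of median RNA to DNA barcode read ratio; higher means stronger binding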
T3 chain: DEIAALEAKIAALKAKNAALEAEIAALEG

4H3922-AA = target: T4, 4H3922-AA; experiment: two-hybrid library CCmax; conditions: mean of both orientations;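 also: natural log of median RNA to DNA barcode read ratio; higher means stronger binding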
T4 chain: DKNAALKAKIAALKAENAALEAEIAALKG

4H3664-AA = target: T5, 4H3664-AA; experiment: two-hybrid library CCmax; conditions: mean of both orientations;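 also: natural log of median RNA to DNA barcode read ratio; higher means stronger binding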
T5 chain: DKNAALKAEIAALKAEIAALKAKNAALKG

4H3625-AA = target: T6, 4H3625-AA; experiment: two-hybrid library CCmax; conditions: mean of both orientations;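 also: natural log of median RNA to DNA barcode read ratio; higher means stronger binding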
T6 chain: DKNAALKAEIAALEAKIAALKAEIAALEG

4H2935-AA = target: T7, 4H2935-AA; experiment: two-hybrid library CCmax
T7 chain: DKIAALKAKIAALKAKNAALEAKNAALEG

4H327-AA = target: T8, 4H327-AA; experiment: two-hybrid library CCmax; conditions: mean of both orientations
T8 chain: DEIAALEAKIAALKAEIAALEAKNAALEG

4H481-AA = target: T9, 4H481-AA; experiment: two-hybrid library CCmax; conditions: mean of both orientations
T9 chain: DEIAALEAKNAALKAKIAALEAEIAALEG

4H4033-AA = target: T10, 4H4033-AA; experiment: two-hybrid library CCmax; conditions: mean of both orientations
T10 chain: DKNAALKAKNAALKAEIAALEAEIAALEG

4H55-AA = target: T11, 4H55-AA; experiment: two-hybrid library CCmax; conditions: mean of both orientations
T11 chain: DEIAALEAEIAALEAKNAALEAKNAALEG

4H340-AA = target: T12, 4H340-AA; experiment: two-hybrid library CCmax; conditions: mean of both orientations
T12 chain: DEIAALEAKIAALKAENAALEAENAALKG

4H2648-AA = target: T13, 4H2648-AA; experiment: two-hybrid library CCmax; conditions: mean of both orientations
T13 chain: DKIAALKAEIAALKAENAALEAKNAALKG

4H2907-AA = target: T14, 4H2907-AA; experiment: two-hybrid library CCmax; conditions: mean of both orientations
T14 chain: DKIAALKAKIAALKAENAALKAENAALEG

4H3378-AA = target: T15, 4H3378-AA; experiment: two-hybrid library CCmax; conditions: mean of both orientations
T15 chain: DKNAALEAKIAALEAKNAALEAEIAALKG

4H3133-AA = target: T16, 4H3133-AA; experiment: two-hybrid library CCmax; conditions: mean of both orientations
T16 chain: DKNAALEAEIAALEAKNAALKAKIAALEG

4H2611-AA = target: T17, 4H2611-AA; experiment: two-hybrid library CCmax; conditions: mean of both orientations
T17 chain: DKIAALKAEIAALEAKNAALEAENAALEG

4H32-AA = target: T18, 4H32-AA; experiment: two-hybrid library CCmax; conditions: mean of both orientations
T18 chain: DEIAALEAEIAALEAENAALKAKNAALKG

4H3697-AA = target: T19, 4H3697-AA; experiment: two-hybrid library CCmax; conditions: mean of both orientations
T19 chain: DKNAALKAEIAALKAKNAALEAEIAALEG

4H982-AA = target: T20, 4H982-AA; experiment: two-hybrid library CCmax; conditions: mean of both orientations
T20 chain: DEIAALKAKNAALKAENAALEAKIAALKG

4H3606-AA = target: T21, 4H3606-AA; experiment: two-hybrid library CCmax; conditions: mean of both orientations
T21 chain: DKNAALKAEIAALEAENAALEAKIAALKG

4H384-AA = target: T22, 4H384-AA; experiment: two-hybrid library CCmax; conditions: mean of both orientations
T22 chain: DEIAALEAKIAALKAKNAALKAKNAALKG

4H3631-AA = target: T23, 4H3631-AA; experiment: two-hybrid library CCmax; conditions: mean of both orientations
T23 chain: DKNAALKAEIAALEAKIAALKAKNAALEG

4H2620-AA = target: T24, 4H2620-AA; experiment: two-hybrid library CCmax; conditions: mean of both orientations
T24 chain: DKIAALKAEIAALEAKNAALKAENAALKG

4H3413-AA = target: T25, 4H3413-AA; experiment: two-hybrid library CCmax; conditions: mean of both orientations
T25 chain: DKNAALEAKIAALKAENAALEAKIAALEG

4H3056-AA = target: T26, 4H3056-AA; experiment: two-hybrid library CCmax; conditions: mean of both orientations
T26 chain: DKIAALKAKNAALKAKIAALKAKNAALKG

4H3162-AA = target: T27, 4H3162-AA; experiment: two-hybrid library CCmax; conditions: mean of both orientations
T27 chain: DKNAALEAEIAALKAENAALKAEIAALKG

4H3865-AA = target: T28, 4H3865-AA; experiment: two-hybrid library CCmax; conditions: mean of both orientations
T28 chain: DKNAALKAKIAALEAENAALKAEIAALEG

4H697-AA = target: T29, 4H697-AA; experiment: two-hybrid library CCmax; conditions: mean of both orientations
T29 chain: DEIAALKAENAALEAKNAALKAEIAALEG

4H3718-AA = target: T30, 4H3718-AA; experiment: two-hybrid library CCmax; conditions: mean of both orientations
T30 chain: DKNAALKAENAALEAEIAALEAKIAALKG

4H3588-AA = target: T31, 4H3588-AA; experiment: two-hybrid library CCmax; conditions: mean of both orientations
T31 chain: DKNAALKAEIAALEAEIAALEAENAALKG

4H2553-AA = target: T32, 4H2553-AA; experiment: two-hybrid library CCmax
T32 chain: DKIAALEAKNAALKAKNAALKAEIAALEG

P9 = target: T33, P9; experiment: two-hybrid library CC1; conditions: mean of both orientations
T33 chain: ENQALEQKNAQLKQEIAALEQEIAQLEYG

P7mS = target: T34, P7mS; experiment: two-hybrid library CC1; conditions: mean of both orientations
T34 chain: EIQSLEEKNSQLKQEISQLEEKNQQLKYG

P6SC2 = target: T35, P6SC2; experiment: two-hybrid library CC1
T35 chain: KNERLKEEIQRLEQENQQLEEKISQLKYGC

P6mS = target: T36, P6mS; experiment: two-hybrid library CC1; conditions: mean of both orientations
T36 chain: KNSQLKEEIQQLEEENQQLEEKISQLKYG

P8 = target: T37, P8; experiment: two-hybrid library CC1; conditions: mean of both orientations
T37 chain: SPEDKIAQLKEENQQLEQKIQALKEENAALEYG

P8mS = target: T38, P8mS; experiment: two-hybrid library CC1; conditions: mean of both orientations
T38 chain: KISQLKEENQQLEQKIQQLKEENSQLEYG

P7 = target: T39, P7; experiment: two-hybrid library CC1; conditions: mean of both orientations
T39 chain: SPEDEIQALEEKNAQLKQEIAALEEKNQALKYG

4H3974-bA = target: T40, 4H3974-bA; experiment: two-hybrid library CCNG1
T40 chain: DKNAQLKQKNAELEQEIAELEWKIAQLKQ

4H3858-bA = target: T41, 4H3858-bA; experiment: two-hybrid library CCNG1
T41 chain: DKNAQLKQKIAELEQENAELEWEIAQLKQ

4H850-bA = target: T42, 4H850-bA; experiment: two-hybrid library CCNG1
T42 chain: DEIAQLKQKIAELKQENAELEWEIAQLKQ

4H570-bA = target: T43, 4H570-bA; experiment: two-hybrid library CCNG1
T43 chain: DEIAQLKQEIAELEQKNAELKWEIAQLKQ

Binder: DKIAALKAKIAALKAKNAALEAKNAALEG [4H2935-AA]
- interaction score (4H662-AA): -1.34
- interaction score (4H3605-AA): -0.818
- interaction score (4H369-AA): -1.13
- interaction score (4H3922-AA): -1.89
- interaction score (4H3664-AA): -1.44
- interaction score (4H3625-AA): -1.65
- interaction score (4H2935-AA): -1.28
- interaction score (4H327-AA): -0.77
- interaction score (4H481-AA): -1.6
- interaction score (4H4033-AA): -1.05
- interaction score (4H55-AA): 1.48

Binder: DKIAALEAKNAALKAKNAALKAEIAALEG [4H2553-AA]
- interaction score (4H340-AA): -0.687
- interaction score (4H2648-AA): -0.498
- interaction score (4H2907-AA): -1.73
- interaction score (4H3378-AA): -1.98
- interaction score (4H3133-AA): -2.05
- interaction score (4H2611-AA): -1.68
- interaction score (4H32-AA): -0.574
- interaction score (4H3697-AA): -2.21
- interaction score (4H982-AA): 1.15
- interaction score (4H3606-AA): 1.86
- interaction score (4H384-AA): -1.95
- interaction score (4H3631-AA): -1.73
- interaction score (4H2620-AA): -1.7
- interaction score (4H3413-AA): -1.58
- interaction score (4H3056-AA): -1.68
- interaction score (4H3162-AA): -1.5
- interaction score (4H3865-AA): -1.79
- interaction score (4H697-AA): -1
- interaction score (4H3718-AA): 1.12
- interaction score (4H3588-AA): -1.93
- interaction score (4H2553-AA): -1.66

Binder: KNERLKEEIQRLEQENQQLEEKISQLKYGC [P6SC2]
- interaction score (P9): -1.47
- interaction score (P7mS): -1.75
- interaction score (P6SC2): -2.13
- interaction score (P6mS): -2.75
- interaction score (P8): -1.84
- interaction score (P8mS): -2.54
- interaction score (P7): 0.0928

Binder: DKNAQLKQKIAELEQENAELEWEIAQLKQ [4H3858-bA]
- interaction score (4H3974-bA): -0.665
- interaction score (4H3858-bA): 0.569
- interaction score (4H850-bA): -0.964
- interaction score (4H570-bA): 1.16
